Results: patent US20240228584A1 (FBD BIOLOGICS, published 2024)

B1: G4_TGFβRII (wt) (Fc fusion)
chain: IPPHVQKSVNNDMIVTDNNGAVKFPQLCKFCDVRFSTCDNQKSCMSNCSITSICEKPQEVCVAVWRKNDENITLETVCHDPKLPYHDFILEDAASPKCIMKEKKKPGETFFMCSCSSDECNDNIIFSEEYNTSNPD
notes: TGFβRII extracellular domain linked to an IgG4 Fc region; Fc is placed first here only because of the name G4_TGFβRII; also called wild-type G4_TGFβRII protein; not shown: Fc region of IgG4 (and any linker)
B2: human TGFβ3 (ligand, UniProt P10600 301-412, looked up)
chain: ALDTNYCFRNLEENCCVRPLYIDFRQDLGWKWVHEPKGYYANFCSGPCPYLRSADTTHSTVLGLYNTLNPEASASPCCVPQDLEPLTILYYVGRTPKVEQLSNMVVKSCKCS

Tests used:
human TGFβ3 [1] = molecular target: B2; assay: ELISA, plate coated with 0.5 ug/ml human TGFβ3, 1 h incubation, HRP secondary antibody, OD450
Experimental: (§1) A 96-well EIA microplate was coated with 0.5 ug/ml human TGFβ (TGFβ1, TGFβ2, or TGFβ3) overnight at 4° C. […] The unbound proteins were removed by washing the wells with 1×PBST (1×PBS containing 0.05% Tween 20) three times. A HRP-conjugated secondary antibody (1:5000) was added to the wells at room temperature (RT) for 1 hour. After the incubation, excess secondary antibodies were removed by washing the wells with 1×PBST three times. Finally, 3,3′,5,5′-Tetramethylbenzidine (TMB) was added for color development. The reaction was stopped and HRP activity was measured using a spectrophotometer at 450 nm.

human TGFβ1 [2] = molecular target: T1, human TGFβ1 (human, UniProt P01137 279-390); assay: ELISA, plate coated with 0.5 ug/ml human TGFβ1, 1 h incubation, HRP secondary antibody, OD450
Experimental: as §1

human TGFβ3 [3] = molecular target: B2; assay: cell-based or functional assay
human TGFβ1 [4] = molecular target: T1, human TGFβ1; assay: ELISA (on rate), plate coated with 0.5 ug/ml human TGFβ1, 5 min incubation, OD450
Experimental: as §1, with “For on-rate binding ability, a 96-well” for “A 96-well”, “0.5 μg/ml” for “0.5 ug/ml”, “TGFβ (TGFβ1)” for “TGFβ (TGFβ1, TGFβ2, or TGFβ3)”, “containing 0.1%” for “containing 0.05%”, “at RT” for “at room temperature (RT)”

human TGFβ1 [5] = molecular target: T1, human TGFβ1; assay: ELISA (off rate), plate coated with 0.5 ug/ml human TGFβ1, 1 h incubation, then 2 h wash on a shaker, OD450
Experimental: A HRP-conjugated secondary antibody (1:5000) was added to the wells at RT for 1 hour. After the incubation, excess secondary antibodies were removed by washing the wells with 1×PBST three times. Finally, 3,3′,5,5′-Tetramethylbenzidine (TMB) was added for color development. The reaction was stopped and HRP activity was measured using a spectrophotometer at 450 nm.

human TGFβ1 [6] = molecular target: T1, human TGFβ1; assay: cell-based or functional assay
G4_TGFβRII (wt) = molecular target: B1; assay: ELISA, plate coated with 0.5 ug/ml human TGFβ3, 1 h incubation, HRP secondary antibody, OD450
Experimental: as §1

T1 sequence (P01137 279-390 limits assumed): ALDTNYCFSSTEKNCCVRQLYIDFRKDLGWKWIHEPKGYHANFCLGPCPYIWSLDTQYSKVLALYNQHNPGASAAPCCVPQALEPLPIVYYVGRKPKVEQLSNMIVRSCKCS

EC50 (read off the curve) (human TGFβ3 [1]) | EC50 (read off the curve) (human TGFβ1 [2]) | IC50 (read off the curve) (human TGFβ3 [3]) | EC50 (human TGFβ1 [4]) | EC50 (read off the curve) (human TGFβ1 [5]) | IC50 (read off the curve) (human TGFβ1 [6]) | binding result (G4_TGFβRII (wt)) | Binder
~2 nM | ~6 nM | ~3 nM | 10.8 nM | ~4 nM | ~1 nM |  | B1
 |  |  |  |  |  | binds | B2
